# Assay results reported in publication doi:10.1101/2021.01.30.428938.
# Several values for one entry are separate records, joined by “and”; a condition that tells them apart may be missing. Equal entries are not always repeated.
# Key:
# [1] = molecular target: Theileria parva schizont antigen Tp2, full-length native, bacterially expressed with His-tag (Theileria parva (Muguga)); experiment: SEC
# [2] = molecular target: Theileria parva schizont antigen Tp2, full-length native, bacterially expressed with His-tag (Theileria parva (Muguga)); experiment: SEC-MALS
substance,measurement,setting,value
"Theileria parva schizont antigen Tp2, full-length native, bacterially expressed with His-tag (natural protein)",stoichiometry N,[1],4 and 2
same,stoichiometry N,[2],2
